The text below walks through data of US10683486B2, “Methods for producing hepatocytes” (BioLamina AB, priority 2015, dated 2020).

Type in all cases: cell-based, human
Series [1] concerns endoderm and hepatic cells differentiated from H9 hESCs. In words: Immunostaining of endoderm and hepatoblast markers (hepatoblast specification). Here is the method:
H9 human embryonic stem cells (hESCs) were cultured and maintained in a humidified 37° C., 5% CO2 incubator. Three different substrates were then prepared in 96-well plates. The first substrate was pre-coated with Matrigel® (MG), and served as a control. The second substrate was coated with 5 micrograms per square centimeter (μg/cm^2) of laminin-521 (LN-521).
(§1) Differentiation was initiated at 40% confluence, by replacing serum-free medium mTESR1 (Stem Cell Technologies) with endoderm differentiation medium—RPMI 1640 containing 1×B27 (Life Technologies), 100 ng/mL Activin A (PeproTech) and 50 ng/mL Wnt3a (R&D). The medium was changed every 24 hours, for 72 hours. On day 4, endoderm differentiation medium was replaced with hepatoblast differentiation medium, and this was renewed every second day for a further five days. The medium consisted of KO-DMEM (Life Technologies), Serum Replacement (Life Technologies), 0.5% Glutamax (Life Technologies), 1% non-essential amino acids (Life Technologies), 0.2% β-mercaptoethanol (Life Technologies) and 1% dimethyl sulofxide (Sigma) for 5 days. At Day 9, differentiating cells were cultured in hepatocyte maturation medium HepatoZYME (Life Technologies) containing 1% Glutamax (Life Technologies), supplemented with 10 ng/mL hepatocyte growth factor (Peprotech) and 20 ng/mL oncostatin m (Peprotech).
(§2) Immunocytochemistry analysis was subsequently performed on hESC-derived hepatocytes. Cell cultures were fixed in 100% ice-cold methanol at −20 degrees Celsius for 30 minutes, and adjacent cells were pre-washed twice with PBS buffer at room temperature. Cell monolayers were blocked with 0.1% PBS-Tween solution containing 10% bovine serum albumin for 1 hour. Subsequently, the monolayers were incubated with primary antibodies diluted in PBS-0.1% Tween/1% BSA at 4 degrees Celsius overnight. After 24 hours, the primary antibodies were removed and the fixed monolayers were washed three times with PBS-0.1% Tween/1% BSA. Cells were incubated with appropriate secondary antibodies diluted in PBS-0.1% Tween/1% BSA for one hour at room temperature and washed with three times with PBS. Cultures were then mounted with PermaFluor™ Aqueous Mounting Medium and counterstained with NucBlue Hoescht 33342. The cells were imaged with the Zeiss Axio Observer Z1 microscope with LD PlanNeoFluar objective lenses, and a Zeiss AxioCamMR3 camera was used for image acquisition. The images were processed through Zeiss Axiovision SE 64 Rel 4.8 and analyzed using Zeiss Axiovision version 4.9.1.0. The percentage of positive cells and standard deviation was estimated from at least five random fields of view.
Next, the efficiency of the differentiation process was measured. FIG. 4 is a set of 15 photomicrographs of endoderm and hepatic cells grown on the three different substrates, 10× or 20× magnification (indicated by scale), on day 3 of differentiation.
FOXA2 was expressed on all substrates at day 3. […] SOX17 staining was more varied across the three substrates; it was lowest on MG and highest on LN-521. As cell differentiation progressed and hepatic fate was specified, cells began expressing high levels of hepatoblast markers. AFP, HNF4a, and CK19 were expressed in the majority of cells on all three substrates. […] As shown, hepatoblast specification on all three matrices appeared equivalent and highly efficient.

Series [2] relates to H9 hESCs differentiating to hepatocyte like cells. In words: Quantitative PCR gene expression during differentiation. The conditions noted are these: days 0, 3, 9, 18; normalized to GAPDH. The procedure:
Total RNA was isolated from cells using Trizol reagent. RNA quantification and quality was assessed using a Nanodrop system. The Life Technologies Superscript III reverse transcription kit was employed to prepare the cDNA. Quantitative PCR was performed with Taqman Fast Advance Mastermix and the appropriate primer pair and analysed using a Roche LightCycler 480 Real-Time PCR System. Gene expression was normalized to glyceraldehyde 3-phosphate dehydrogenase (GAPDH) and expressed as relative expression over the control sample (hESC on Day 0 of differentiation). Quantitative PCRs were performed in triplicate. Data analysis was performed using Roche LightCycler 480 Software (version 1.5). […] Cell extracts were collected during differentiation and mRNA assessed on days 0, 3, 9, and 18. […] It should be remembered that the “LN-511” label refers to a substrate containing a blend of laminin-521 and laminin-111 at a 1:3 weight ratio. FIG. 3 is a set of six bar graphs showing gene expression during differentiation on the three substrates (MG, LN-521, and LN-511) for six different genes whose name is above each graph. Relative gene expression was normalized to the housekeeping gene GAPDH. […] Endoderm associated gene FOXA2 peaked on all substrates on day 3 and then decreased thereafter. […] HNF4A was detected at day 3 on all substrates, but by day 9, significant differences in expression patterns emerged.

Another series relates to MAN11 cells. In words: Immunostaining of ALB and CYP3A in MAN11 derived cells (Example 5). The following applies: MAN11, Day 18, Cameron protocol. The procedure:
MAN11 cells, another GMP grade cell line, were plated on three different substrates. The first substrate was Matrigel® (MG), and served as a control. The second substrate was coated with 5 micrograms per square centimeter (μg/cm^2) of laminin-521 (LN-521). […] The cells were then differentiated according to the Cameron protocol.
FIG. 16 is a set of 15 photomicrographs at 10× magnification, organized into three columns and five rows. […] Row A is a set of phase contrast images of morphology. The scale bars are 200 μm. Row B is a set of photomicrographs showing the immunofluorescent staining of albumin (ALB) on the three different matrices. Row C is a set of photomicrographs showing the immunofluorescent staining of cytochrome P450 3A (CYP3A). Row D is a set of photomicrographs showing the immunofluorescent staining of multidrug resistance protein 1 (MRP1). Row E is a set of photomicrographs showing immunoglobulin G control staining for sheep, mouse, and rabbit antisera. All of these photos were taken on Day 18.

The test system of the next series is hESC-derived hepatocytes. In words: Immunostaining of hepatocyte markers and cytochrome P450 expression (hepatocyte maturation). The procedure:
as §1, §2
Post-hepatoblast specification, cell cultures were differentiated toward hepatocytes. Hepatocyte specification was assessed by immunostaining for albumin (ALB), E-cadherin (E CAD), cellular proliferation marker (Ki67), cytochrome p450 2D6 (CYP2D6), and cytochrome p450 3A4 (CYP3A4).
FIG. 5 is a set of nine photomicrographs of hepatic cells on day 18 of differentiation.
Given that cell organisation and cell division are important factors in hepatocyte function, hepatocyte metabolic capacity in vitro was studied. Stem cell derived hepatocytes were first examined for cytochrome P450 expression using well characterised antisera. CYP3A and CYP1A2 activity were measured from days 16-26 using pGlo technology. CYP activity was expressed as relative light units (RLU) per milliliter of media per milligram of protein. Levels of significance were measured by student t-test.
FIG. 6 is a set of six photomicrographs and two bar graphs of gene expression in hepatic cells.

As for “LN-521: substrate coated with 5 μg/cm^2 of laminin-521, the protein formed by joining α5, β2 and γ1 chains”, in series [1] (day 3 of differentiation), the “AFP, percentage of positive cells and standard deviation” value was 98.3% ± 0.9; the “CK19, percentage of positive cells and standard deviation” value is listed as 98.5% ± 1.0; the “FOXA2, percentage of positive cells and standard deviation” value was 80.4% ± 3.5; the “HNF4A, percentage of positive cells and standard deviation” value was 86.4% ± 2.3. Moreover, the “SOX17, percentage of positive cells and standard deviation” value in series [1] (day 3 of differentiation) is 92.6% ± 1.8. For the same substance, the “increase in cell size of differentiated hepatocytes” value in series [1] (see CK19 photomicrographs) is given as “approximately 2 fold”. Besides, in series [2], the “AFP gene expression over time” value is recorded as “peaking on day 9 then decreasing at day 18” and the “HNF4A gene expression over time” value is “highest on day 9, decreasing by day 18”. Moreover, in the series on MAN11 cells, the “ALB, percentage of positive cells and standard deviation” value is 89.2% ± 6.0; the “CYP3A, percentage of positive cells and standard deviation” value was 90.8% ± 9.9. In the series on hESC-derived hepatocytes (day 18 of differentiation), the “Albumin, percentage of positive cells and standard deviation” value was 89.5% ± 8.7; the “E CAD, percentage of positive cells and standard deviation” value was 67.4% ± 4.4. The “Ki67, percentage of positive cells and standard deviation” value in the series on hESC-derived hepatocytes (day 18 of differentiation, proliferation marker) was 17.4% ± 6.2. In the series on hESC-derived hepatocytes (immunostaining, FIG. 6), the “CYP2D6, percentage of positive cells and standard deviation” value is listed as 85.7% ± 5.7; the “CYP3A, percentage of positive cells and standard deviation” value is 91.3% ± 3.7.
